Assay results published in patent US6709838.

Target: human Ptch (SEQ ID NO:4), overexpressed on transfected human 293 embryonic kidney cells (human) (UniProt Q13635)
Assay: Scatchard analysis of 125I-Shh displacement curves, 293 cells expressing Ptch

| Substance | Kd [nM] |
| --- | --- |
| Dhh (SEQ ID NO:13) (from UniProt Q61488 23-198) (ligand) | 2.6 |
| Ihh (SEQ ID NO:29) (from UniProt P97812 28-202) (ligand) | 1 |
| Shh (SEQ ID NO:14), 19kD amino terminal fragment of murine Shh (from UniProt Q62226 25-198) (ligand) | 1 |
